# Experimental data reported in the DeepSol protein solubility set.
# Experiment: soluble on expression in E. coli; label from the status in PepcDB or PDB records
row,Sequence,soluble on expression in E. coli
1,MGSDKIHHHHHHDSFKTKSGKELTITFIKHGSLMLTYDNHSIQVDPVSEYADYTTFPKADIILITHEHGDHLDPKAIQAVEKSDTEIIANENSQKKLGKGKVLKNGDTDTSISYMKIEAVPAYNTTPGRDKYHPRHRDNGYILTFDGLRVYIAGDTEDIPEMKDLKDIDIAFLPVNQPYTMTVSQAAKAARMFSPKILYPYHYGDTKIGELKDALKDSGIDVRIRELQ,not soluble
2,MLDFKPIELKDRELFHEYLKDYDFLTYEYSFLTLYIWRKMYNTEFAIVDDTIVIKKRTANNGTYFMQPIGADKSKIADITLKLNTLRKNNPDFKYLYGDVETPFLEQLHENFGNLVTSHEDKNNFDYIFNSKDLIKLSGKKYHRKKNQYNQFIKKYDYRIEEIQSPEVIKNCIDLSLKWYDYKSLQSEQLKNEQKAIFDIFSNIKIFNNIKGIAVYVNNEIAGFAIGEKLNSKMATVHFEKGNYNFSGIYPFLNKSLVEIFFRDVEFINLQEDLGLEGLRRAKSAYQPIKLEKKYLVNI,not soluble
3,SFTMAQQSGGGLTRGSFPEGFVFGTASAAYQYEGAVKEDGRGQTIWDTFAHTFGKITDFSNADVAVDQYHRFEEDIQLMADMGMDAYRFSIAWSRIYPNGVGQVNQAGIDHYNKLIDALLAKGIQPYVTLYHWDLPQALEDKYKGWLDRQIVDDFAAYAETCFREFGDRVKHWITLNEPHTVAIQGYDAGLQAPGRCSVLLHLYCKAGNSGTEPYVVAHHFILAHAAAASIYRTKYKATQNGQLGIAFDVMWFEPMSNTTIDIEAAKRAQEFQLGWFADPFFFGDYPATMRARVGERLPRFTADEAAVVKGALDFVGINHYTTYYTRHNNTNIIGTLLNNTLADTGTVSLPFKNGKPIGDRANSIWLYIVPRGMRSLMNYVKERYNSPPVYITENGMDDSNNPFISIKDALKDSKRIKYHNDYLTNLAASIKEDGCDVRGYFAWSLLDNWEWAAGYSSRFGLYFVDYKDNLKRYPKNSVQWFKALLKT,soluble
4,LATMKDVARLAGVSTSTVSHVINKDRFVSEAITAKVEAAIKELNYAPSALARSLKLNQTHTIGMLITASTNPFYSELVRGVERSCFERGYSLVLCNTEGDEQRMNRNLETLMQKRVDGLLLLCTETHQPSREIMQRYPTVPTVMMDWAPFDGDSDLIQDNSLLGGDLATQYLIDKGHTRIACITGPLDKTPARLRLEGYRAAMKRAGLNIPDGYEVTGDFEFNGGFDAMRQLLSHPLRPQAVFTGNDAMAVGVYQALYQAELQVPQDIAVIGYDDIELASFMTPPLTTIHQPKDELGELAIDVLIHRITQPTLQQQRLQLTPILMERGSA,soluble
5,GSHMPVVHVIDVESGNLQSLTNAIEHLGYEVQLVKSPKDFNISGTSRLILPGVGNYGHFVDNLFNRGFEKPIREYIESGKPIMGICVGLQALFAGSVESPKSTGLNYIDFKLSRFDDSEKPVPEIGWNSCIPSENLFFGLDPYKRYYFVHSFAAILNSEKKKNLENDGWKIAKAKYGSEEFIAAVNKNNIFATQFHPEKSGKAGLNVIENFLKQQSPPIPNYSAEEKELLMNDYSNYGLTRRIIACLDVRTNDQGDLVVTKGDQYDVREKSDGKGVRNLGKPVQLAQKYYQQGADEVTFLNITSFRDCPLKDTPMLEVLKQAAKTVFVPLTVGGGIKDIVDVDGTKIPALEVASLYFRSGADKVSIGTDAVYAAEKYYELGNRGDGTSPIETISKAYGAQAVVISVDPKRVYVNSQADTKNKVFETEYPGPNGEKYCWYQCTIKGGRESRDLGVWELTRACEALGAGEILLNCIDKDGSNSGYDLELIEHVKDAVKIPVIASSGAGVPEHFEEAFLKTRADACLGAGMFHRGEFTVNDVKEYLLEHGLKVRMDEE,soluble
6,MEMSSNNKPVAGAEIKVAGASPTDSDQEGRFILNFTASLPGDPLMINDIYKKGFKIVNYEKVANWNISSASELKIVLGRTEVINALRKKYYDIGESNSEKEYRKTLAELEELKKQNALSAVEYDQKVDSMSKSMMEWQKRLEIYALKFACINRDELDAMEKQAMELLDHGDVHGAIRLYEEMKLDSTMTLKIAVRQEAKEDMKLLLPSLVNNFQLLKQADDKVACDSVAHLIYEMAADIKLKLMSVEWFFQRNDPSEVLDQYSLIVKDTQSMQEIELVENSLQQSLKEVKLKGELKKKAQLVFERIEDRKKWISIKEKI,not soluble
7,MGSDKIHHHHHHQSFTPGEIWPDNHQVHINAHGGGILYENGTYYWFGEHKTEGEAGNLANVGVHCYSSDDLYHWKDCGIALSVIENDPGHPISKGCILERPKVIYNPLTKKYVMWFHLEPKGAGYSGALSGIALSDRVTGPYTFLKAVRPNAGSWPINVLPIHKTTRRPSAEEERQCTGGSLPAHPDSLNILGRDMEQGQMARDMNLFVDDDGKAYHIYSSEENSTLHIAELDPTYTGYTGKYIRVFINRFMEAPAMFKKDGNYYLIMSGCSGWNPNAARSAIASSIWGEWKELGNPCIGQDADLTFHSQSTYILPVQGKKNQFIYMGDRWTPQNAIDGRYIWLPIHFEGPKPIIEWKDSWTLD,not soluble
8,MGHHHHHHSHMSETTQTSQSLYQALWNSADVLRSKMDANDYKSYLLGMVFYKYLSDKMLFFVAETMEEETESLDEALAVYRKYYEDEETHEDLLAVITDEMSYAIHPDLTFTALVERVNDGSFQLEDLAQGFRDIEQSDELYENLFEDIDLYSKKLGATPQKQNQTVAAVMKELAVLDVAGHAGDMLGDAYEYLIGQFATDSGKKAGEFYTPQPVAKLMTQIAFLGREDKQGFTLYDATMGSGSLLLNAKRYSRQPQTVVYFGQELNTSTYNLARMNMILHGVPIENQFLHNADTLDEDWPTQEPTNFDGVLMNPPYSAKWSASSGFMDDPRFSPFGKLAPKSKADFAFLLHGYYHLKQDNGVMAIVLPHGVLFRGNAEGTIRKALLEEGAIDTVIGLPANIFFNTSIPTTVIILKKNRTNRDVYFIDASKEFDKGKNQNIMTDAHIEKILNAYKSREDIDKFAHLASFEEIVENDYNLNIPRYVDTFEEEEVEPLTEIVAKINQTNATIESQTASLLDMLGQLHGTTPEADEELKAFVKAFKG,not soluble
9,SPPNLTPAQSNRVCNSLALLQCVASHSDTRMLFLKAHIPLYLYPFLNTTSKSRPFEYLRLTSLGVIGALVKVDDTEVISFLLSTEIIPLCLRTMEMGSELSKTVATFIVQKILLDDVGMDYICTTAERFFAVGRVLGNMVQSLVEQPSPRLLKHIIRCYLRLSDNPRACAALASCLPDSLRDGSFSNCLREDPTARRWLQQLVHNVGVGRVPTHQGGGFEHML,not soluble
10,MFLTRSEYDRGVNTFSPEGRLFQVEYAIEAVKLGSTSIGIKTSEGVLLAAEKRSTSKLMVNDAIEKISKVDQHIGVTFAGLIADSRTLVERAQIEAQNFWFTYNRKIRVEDVTQSVANLALQFGDDDVKASMSRPFGVAMLFAGVDQEGAKLFHLDPSGTFIDCKAKSIGAASDGAEQNLKEQYHDALTIKEGLKMALAILKQVMEEKLNSANVEVVVIKPTVDAKGRPIGEFTRVSNEELDQVITSL,not soluble
11,MEQMIFIRKDDKVEVFSEEEELKGSYYRAILEDNPTKSGHNKLKVRYLTQLNEHRLAPLTEFVDQRFIRPVPSEDVNDGVVFVEGLMVDAYLKDGWWTGVVVKTMEDEKFLVYFDCPPDIIQFEKKKLRVHLDWTGFKWIRPDNKELVKSVFSCGTMVELRFDCAWIPVIVIKELEKDKRFLVKYWNKSYSCRESKNLIVDSLRLRPMQPPLSVGKYELLDHVEAFSGFEWRQGVVRGIVFEGRYMVSFGATKEASQFNHSDIRPPMEWEDGVWHKRTKPKRQKETSLDGNRNVQTKEPPGNEMADDVKKESGLPITLGVTATKNKTQGKVSPVPMKNGFGNESTREKMPEEPKIKYYTRKRKRGGLKLNSYINKTVLSSDRTPNVVKNSASNAEENHAKHTIMVLPFAKKSPVWKTYESLEVFKSVSHSLHFSPLFETKQDFREGYAIGMMVTYFGLLEKFKDLEADVPVSQLNSLKDSFSELEKHGFNVTTPLSRIDKLLALKDRQLYIMEELKGFDKEMTNEFSKAKQEFDDMEQKILEVKHKIIELQRQEAALKEQKEAEKEQKDAAWKKICQMESCAKDLNVELEDVEFEFETILSAPW,soluble
12,MAHHHHHHMGCKSSAEAKPSETRSPSARLSRNSVTTPPDRMDTAHRLHPAAREEVDLDPENVAGAEHISPSVVTARSSSRVAAVTLHGICGYTHNGVPAYSNGTSNTWPWMKNFCEGIFMGYQWQCVEFARRWLWVTHRLLLPKRSCAYCFSSCTYAYRLKKDSSLISQRARAAMHKAAAETGAGSPSSSKEVNAATEARHLGPCTSRDTWEKVPAKFVKQGSLVPPVADSLIVYPISWGSPWGHIGVITAVDLDRHRVYVADQNRYFHDWNG,soluble
